Results on 1 substance are retold here after patent US6500929B1.

For experiment [1], the target named is C1 (a first component of complement) of human serum (human) (UniProt P09871).
The target is the same in experiment [2]. This is another data set of the same source.

In experiment [1], “FLAG-C1-INH-GPI (C1-INH-GPI with a FLAG epitope tag added to the C terminal of the signal peptide)” showed a complement-mediated lysis of swine vascular endothelial cells (SEC) by 20% and 40% human serum of 20%. Besides, in experiment [2], the complement-mediated lysis of CHO cells (antibody against CHO cells, then 40% human serum) worked out at 20%.
